assay: soluble on expression in E. coli; label from the status in PepcDB or PDB records

| Sequence | soluble on expression in E. coli |
| --- | --- |
| MSLDLNKYKDRIITLAKPYLNREFDFADVKLTLISGLGVEINGLRIADNPEFGSEDFLSLQSLRIKVALFPLLKKKIQIKKLIMDEPVVRLVRNSNGVFNFSDMASDAEEDEKPQAKDEKRKEKKSGSEKKPDSEHNIFLAGLMVSQFTLHSGQIHFLDNFVPDAPVTMVFDSLNIELKNVSLYKPIRIYASAGLQGTTEQNLLIKGMVGPVGDNMDLVGLAMDIHVSVQNVFLHKFVPYIPDGLMLSPLEGILYMTANIKGSVHSGLDLESVIQGEKLVMSIKDSDEKIQNVNITLKEKIKYDDRKGDIGFQQLDLALNDNNVSLTGTIENIKTDPQWDVTLMAKMNALDEALALYPVFKEALPQDFRFTGPLNMEITSSGSKDAMQISGHTDMTRAEILYGEVFKKQKNIPFQISLKANKIADIIQLEAFAVNLQNASLNSSGSIEDMVNPRFDLVSTANEFSLKGWDAIVPLLKEYEPEGSVSIKNYMKGNFDDAFVNLHVSSPKLLFKFPASSDKKEDENTKQRKDVAESIRFELLAKKLADNITADGGLEMGNGTILDINFEEAKGKYSFQDDILKIQSFQMRTFEGDISLTGNYDSKSMQWDASPIINAVRIDGVVDAFTQYRGMMKGVFSGSFDMGGSLGKNDKMVTNANGSFRLLQGEIENVNLMETIIDSLLGIKEVYKYAGEKKDVLEKYDVTRFDSLDGEFSLLNDMLDLKKCYLENIYTPDVPGSDAKLKGDINFDTGKLDLSGKVILSSEHSEKLTKKAKPLKALLNEKGNIVLPVTVTGTMSNPKPLLDTSYVLNAMMNYYGKEELEKGLDKLKGKLGLEKLGLEKLWQKDEGHHHHHH | not soluble |
| GHMLVMRPAQAADLPQVQRLAADSPVGVTSLPDDAERLRDKILASEASFAAEVSYNGEESYFFVLEDSASGELVGCSAIVASAGFSEPFYSFRNETFVHASRSLSIHNKIHVLSLCHDLTGNSLLTSFYVQRDLVQSVYAELNSRGRLLFMASHPERFADAVVVEIVGYSDEQGESPFWNAVGRNFFDLNYIEAEKLSGLKSRTFLAELMPHYPIYVPLLPDAAQESMGQVHPRAQITFDILMREGFETDNYIDIFDGGPTLHARTSGIRSIAQSRVVPVKIGEAPKSGRPYLVTNGQLQDFRAVVLDLDWAPGKPVALSVEAAEALGVGEGASVRLVAVGS | soluble |
| DDVPPRIARAMENEEYWDFDIFELEAATHNRPLIYLGLKMFARFGICEFLHCSESTLRSWLQIIEANYHSSNPYHNSTHSADVLHATAYFLSKERIKETLDPIDEVAALIAATIHDVDHPGRTNSFLCNAGSELAILYNDTAVLESHHAALAFQLTTGDDKCNIFKNMERNDYRTLRQGIIDMVLATEMTKHFEHVNKFVNSINKPLATLEENGETDKNQEVINTMLRTPENRTLIKRMLIKCADVSNPCRPLQYCIEWAARISEEYFSQTDEEKQQGLPVVMPVFDRNTCSIPKSQISFIDYFITDMFDAWDAFVDLPDLMQHLDNNFKYWKGLDEM | soluble |
| MSTVGGIEQLIPDSVSTSFIETVNGSHQFTIQGYSLAKGMSPGKFIQSDIFSVGGYDWAIYFYPDGKNPEDQSSYISLFIALASDSNDIRALFELTLMDQSGKGKHKVHSHFDRALEGGPYTLKYKGSMWGYKRFFKRSALETSDYLKDDCLVINCTVGVVRARLEGPKQYGIVLPLSNMGQGLKDLLDSEVGCDIAFQVGDETYKAHKLILAARSPVFRAQFFGPIGNNNVDRIVIDDIEPSIFKAMLSFIYTDVLPNVHEITGSTSASSFTNMIQHLLAAADLYDLARLKILCEVLLCEKLDVDNVATTLALAEQHQFLQLKAFCLEFVASPANLGAVMKSEGFKHLKQSCPTLLSELLNTVAAADKSSTSGQSNKKRSASSVLGCDTTNVRQLRRRTRKEVRAVS | not soluble |
| QKEQHSQLNQTKIAYEQRLLNDLEDMDDPLDLFLDYMIWISTSYIEVDSESGQEVLRSTMERCLIYIQDMETYRNDPRFLKIWIWYINLFLSNNFHESENTFKYMFNKGIGTKLSLFYEEFSKLLENAQFFLEAKVLLELGAENNCRPYNRLLRSLSNYEDRLREMNIVENQNSVPDSRERLKGRLIYRTAPFFIRKFLTSS | soluble |
| MAFLGYGAAAALGGALVYANLPTYLTIGAVAPTFAHLAAAKLVPIRGGPKEKEVVERNEQFTADSLFKKGPIMVMAVRRPGCMLCRREAAELHTLLPLLKEKGIELAAVVHETRGANEFKSWFSGGDVYLDTDRTFYGPNERWLPVWMGFLRFGTYSNVYKAKKAKVEGNMEGEGRLLGGVYLIANNDIVFTHLEKEWGDAADIKEVRAAVEKFSEKSK | not soluble |
| MNKDQSKIPQATAKRLPLYYRFLKNLHASGKQRVSSAELSDAVKVDSATIRRDFSYFGALGKKGYGYNVDYLLSFFRKTLDQDEMTDVILIGVGNLGTAFLHYNFTKNNNTKISMAFDINESKIGTEVGGVPVYNLDDLEQHVKDESVAILTVPAVAAQSITDRLVALGIKGILNFTPARLNVPEHIRIHHIDLAVELQSLVYFLKHYSVLEEIE | soluble |
| MGSDKIHHHHHHMSPRKPRSPTAPNSSASIAPIPRLMPKLFVLDSNVLMHDPTSLFRFQEHDIYITMTTLEELDNNKKGMSEVARNARQTSRFLDEIVSSAITDIDEGISLQLHGTKNATGRLFLQTQAITNVLPVYLASGSADNQIIGAVKFLHDTHQNRVVTLVSKDINMRIKARALGLAAEDYFNDKVLEDTDVLFSGIQELPEDFWDEHGKDMESWQQSGQTFYRVTGPLAGGFVINQFVYLEHDKPFYAQVKETSGRTAVLQTLKDYTHQKNNVWGITARNREQNFAFNLLMNPEVDFVTLLGQAGTGKTLLTLAAGLMQTLEHKVYSEIIMTRVTVPVGEDIGFLPGTEEEKMTPWMGALEDNLDVLNKTDSSAGEWGRAATLDLIRSRIKIKSLNFMRGRTFINKFLIIDEAQNLTPKQMKTLITRAGPATKVVCLGNIAQIDTPYLSEGSSGLTYVVDRFKGWNHSGHVTLQRGERSRLADYAAEIL | not soluble |
| MGSDKIHHHHHHMMLQIPDVLSKAQVAQCRQMMDVADWTDGNATSGHQSALAKRNMQLPEGSPVARQIGDLIQDALGANATFFSAALPLKVFPPLFNRYEGGQAFDNHVDNAIRYLRGTGFRVRSDLSATLFLTEPQDYDGGELVIEDTYGQHRVKLPAGYMVLYPATSLHHVTPVTRGARVSSFFWIQSMVRDEGQRALLFELDTRIQQVAEEMGQKDSGVVGLTGVYHNLLRRWADA | not soluble |
| MGSDKIHHHHHHMDKFLYIAMSGAKQGMNALAVSANNLANANTDGFKADMVQARSMQAFGEGLPTRVFSMMESPGSNFNGGPIKTTGRDLDIAVKGDGWLAVQAADGSEGYTRAGSLKIDSTGMLLNSSNRPVMGASGPIVLPIPVEKIEISANGIISVRPQGATAEVIEEVARIKLVNPGNENLMRGEDGLFRLIAGGNAPNDPGVQVESGAVEGSNVNSVHEMVAMIDIQRQYEMQVKMMKNAEEIDRASTSLMRIS | not soluble |
| MQRHTLPLRPLLGTLLLGLLLAGCDASRDDATALGPVPIASGDECHVCGMLIEEMPGPKGESVLPGAVRKFCSTAELFGWWLQPENRQGQARLYVHDMSQADWRHPDDARLIDATRAYYVVGIQRPGGMGATLASFADEEAATRLAAEEGGRVLRFDEIDQAVLQGVGGDHPHRHPAH | not soluble |
| IGKVKYNLGFNLYDAKTKITKYNNETGLFGKDKNDKDTYRVGMELGEIWGYVTDRLYTVDDFDADGKLKAGIPKVEGYNPNPGDILYKDLDDNDIINGGTSTTKDPGDRKIIGNSTRRYQYGIHGGANWKGVSLSFLLQGVGKRDLWIMNDLFYPHYDAWTTVYDTQLNYWTPERTDSYFPRLYEKAAGNTAANTRIQTRYLQDGSYLSIRNITLSYNFPSKWMTKIGVNNLAVFFSGENLYTFDHLPKGLDPERSVTDDLGQRGFTYPYMRQYSFGINLSF | not soluble |
| MSLAPFVAKDIRVDGVQGDLEQQIRASLPVRAGQRVTDNDVANIVRSLFVSGRFDDVKAHQEGDVLVVSVVAKSIISDVKIKGNSVIPTEALKQNLDANGFKVGDVLIREKLNEFAKSVKEHYASVGRYNATVEPIVNTLPNNRAEILIQINEDDKAKLASLTFKGNESVSSSTLQEQMELQPDSWWKLWGNKFEGAQFEKDLQSIRDYYLNNGYAKAQITKTDVQLNDEKTKVNVTIDVNEGLQYDLRSARIIGNLGGMSAELEPLLSALHLNDTFRRSDIADVENAIKAKLGERGYGSATVNSVPDFDDANKTLAITLVVDAGRRLTVRQLRFEGNTVSADSTLRQEMRQQEGTWYNSQLVELGKIRLDRTGFFETVENRIDPINGSNDEVDVVYKVKERNTGSINFGIGYGTESGISYQASVKQDNFLGTGAAVSIAGTKNDYGTSVNLGYTEPYFTKDGVSLGGNVFFENYDNSKSDTSSNYKRTTYGSNVTLGFPVNENNSYYVGLGHTYNKISNFALEYNRNLYIQSMKFKGNGIKTNDFDFSFGWNYNSLNRGYFPTKGVKASLGGRVTIPGSDNKYYKLSADVQGFYPLDRDHLWVVSAKASAGYANGFGNKRLPFYQTYTAGGIGSLRGFAYGSIGPNAIYAEYGNGSGTGTFKKISSDVIGGNAIATASAELIVPTPFVSDKSQNTVRTSLFVDAASVWNTKWKSDKNGLESDVLKRLPDYGKSSRIRASTGVGFQWQSPIGPLVFSYAKPIKKYENDDVEQFQFSIGGSFEGHHHHHH | not soluble |
| MSLNTVIADFTERAGTGRVLKAEPEAIQLAPEQTALIVVDMQNAYTSIGGYLDLAGFDVSKTKPVVENIQKAVTAAHAAGIQVIYFKNGWDNQYVEAGGAGSPNFHKSNALKTMRKQPELQGKLLAKGGWDFELIDELQPKSQDIVIEKPRYSGFFNTALDSMLRARGIRNLVFVGIATNVCVESTLRDGFFLEYFGVALDDACYQAGPVEMHRASMYNIKTFFGWVSDTEGHHHHHH | not soluble |
| MGSDKIHHHHHHLLVKRARLIVGNCWYLLHRIPVEIKDNSQYDIKLSDFGLSEFAESAKFDPVLCGTGPYMSGYRLEGVQGYQHSYVDDVWALAVCLFFLLYNEWPFRKRDGNVKDLLGFDPSQMWVPFPQGCRITAKRVGQGLIIENVNWPDASGDFSNYKGYDLLSYVKDQSVLEFSKVGGEIYEFRAGDDVEQINHQMNAALTEHECFIRFPGQEEDRKRRFRNEVLAGIREYWIQSDIEYGSGTRKQDLLESLATGSTEHSILQKLRVLPAYKSARKRSAEQSELGMLSFGLSGILKNSK | not soluble |
| MDTMSQILKLLEKTDSIEINEFRMDVDELELTIMPTLQNVVQKVVEKQIEAKKEFESQIEFKYPVKDYAGKVNEVKLGGKNRKTVKLGGQTSLYRFEEPQPNAPTVTFDVFDIPMNGLPRPIKENFEDVMHSPGEWAQKAVKEFGADMITLHLIGTDPKVKDKSLKDAAKDLEEVLQAVKVPLVIGGSGNPKKDPLVLEMAAEVADGERCLLASANLDLDYQKIAQAAVKHDHAVLSWAISDINMQKVLNKALMKEGLTANDIVMDPTTCALGYGIEFSIDVMTRTRLSALKGDEILQMPMSSGTTNAWGSREAWMKKDEWGPTKYRGPIWEVVTGLTMMLCGVDIFMMLHPLSVKTLKEIGTTLTYEYKSKESQDISDWINKF | not soluble |
| MLNNKRLFTSESVTEGHPDKIADQVSDAILDAILKDDPNARVACETTVTTGMALIAGEISTTTYVDIPKVVRETIKEIGYTRAKYGYDYETMAILTAIDEQSPDIAQGVDKALEYRDKDSEEEIEATGAGDQGLMFGYATNETETYMPLAIYLSHQLAKRLSDVRKDGTLNYLRPDGKVQVTVEYDENDNPVRIDTIVVSTQHAEDVTLEQIQEDIKAHVIYPTVPENLINEQTKFYINPTGRFVIGGPQGDAGLTGRKIIVDTYGGYARHGGGCFSGKDPTKVDRSAAYAARYVAKNIVAAGLADQCEVQLAYAIGVAEPVSIAIDTFGTGKVSEGQLVEAVRKHFDLRPAGIIKMLDLKQPIYKQTAAYGHFGRTDVLFPWEKLDKVEELKDAVK | not soluble |

Source: the DeepSol protein solubility set
